This is an account of results in PMC3150355, “TAT-Mediated Transduction of MafA Protein In Utero Results in Enhanced Pancreatic Insulin Expression and Changes in Islet Morphology”.

For the series, the target named is TAT-MafA (unphosphorylated, PBS treated) (human, UniProt Q8NHW3 1-353). The series can be described thus: EMSA; unphosphorylated; basal DNA-binding activity; Pierce LightShift chemiluminescent EMSA kit; 200 fmol/ul biotin-DNA, unlabeled competitor 10 pmol/ul, 82.15 ug TAT-MafA; ERK2 or PBS 37 C 1 h, then 20 min binding; buffer, pH and binding temperature not stated. The following applies: protein: recombinant; TAT PTD (11 aa) and 6xHis, pTAT-2.1 (pET28); chain copies: 2; blunt.
Chain of TAT-MafA (unphosphorylated, PBS treated) (Q8NHW3 whole entry): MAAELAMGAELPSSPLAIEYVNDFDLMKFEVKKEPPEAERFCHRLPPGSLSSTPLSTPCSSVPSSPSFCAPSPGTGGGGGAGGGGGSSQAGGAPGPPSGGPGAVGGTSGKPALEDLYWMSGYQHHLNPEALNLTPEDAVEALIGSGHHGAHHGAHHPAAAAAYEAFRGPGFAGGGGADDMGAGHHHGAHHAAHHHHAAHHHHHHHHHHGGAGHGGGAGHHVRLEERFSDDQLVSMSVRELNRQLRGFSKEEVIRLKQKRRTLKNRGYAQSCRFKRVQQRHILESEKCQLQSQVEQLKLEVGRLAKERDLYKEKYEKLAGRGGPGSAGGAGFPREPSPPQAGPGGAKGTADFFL

B1: insulin promoter -139 to -104 (C1 box) (dsDNA)
DNA 1: ATGGTCCGGAAATTGCAGCCTCAGCCCCCAGCCATC
DNA 2: GATGGCTGGGGGCTGAGGCTGCAATTTCCGGACCAT
Take B1: the binding result is on record as “binds”.
